Assay [1] deals with T1, recombinant Shiga toxin-2a B subunit (rStx2aB), C-terminal 6xHis tag (Escherichia coli O157:H7 EDL933 …).
T1 construct: source: E. coli BL21 (pET22b), periplasmic extract, purified (IMAC, SEC); not shown: His6, C-terminal, kept
The assay is described as follows: crystal structure. Conditions: both partners purified.

Assay [2] deals with T2, Stx2a holotoxin (Stx2a A subunit with the Stx2a B pentamer) (Escherichia coli, Stx2a strain not …, UniProt P09385;P09386).
T2 construct: copies: 1 + 5
The assay is described as follows: pull-down. Conditions: one partner purified.

Here are results for two molecules from PMC5869396 (Toxins, 2018).

B1: Nb113 (expressed from pMECS, C-terminal HA and His6 tags) (VHH)
VHH: QVQLQESGGGLVQPGGSLRLSCAASGFTFSSYYMSWVRQAPGKGPEWVSGINTGGVGTRYADSVKGRFTISRDNAKNTLYLQMNSLKPEDTALYYCAIGEGGNRNYWGQGTQVTVSS
notes: source: E. coli WK6 (pMECS), periplasmic extract, purified (IMAC, SEC)
With B1, the stoichiometry N (in general, a count of units in the complex or per binding partner) in assay [1] was 5 per pentamer.

B2: monovalent Nb113 (expressed from pHEN6c, His6 tag, without the HA tag) (VHH)
VHH: QVQLQESGGGLVQPGGSLRLSCAASGFTFSSYYMSWVRQAPGKGPEWVSGINTGGVGTRYADSVKGRFTISRDNAKNTLYLQMNSLKPEDTALYYCAIGEGGNRNYWGQGTQVTVSS
notes: also called Nb113 monovalent; monomeric Nb113; source: E. coli WK6 (pHEN6c), purified (IMAC, SEC)
Turning to B2, the binding result in assay [2] is on record as “binds”.
